Patent publication US8349797 (dated 2013)
Read-outs that look alike come from different tables or passages of the source. Bridges are numbered along the chain shown (N, C = ends). [ ]: non-standard residue; d: D form. 1Nal = N[C@@H](Cc1cccc2ccccc12)C(=O)O; 2Nal = N[C@@H](Cc1ccc2ccccc2c1)C(=O)O; d2Nal = N[C@H](Cc1ccc2ccccc2c1)C(=O)O; Aib = CC(C)(N)C(=O)O; βAla = NCCC(=O)O

What was measured:
Test in all cases: competition
hMC4-R [1] = target: T1, hMC4-R (human, UniProt P32245)
hMC5-R [2] = target: T2, hMC5-R (human, UniProt P33032)
hMC3-R [3] = target: T3, hMC3-R (human, UniProt P41968)
hMC1-R [4] = target: T4, hMC1-R (human, UniProt Q01726)
hMC5-R [5] = target: T2, hMC5-R; remark: listed apart in the source
hMC1-R [6] = target: T4, hMC1-R; remark: listed apart in the source
hMC3-R [7] = target: T3, hMC3-R; remark: listed apart in the source
hMC4-R [8] = target: T1, hMC4-R; remark: listed apart in the source

T3 sequence (P41968 whole entry): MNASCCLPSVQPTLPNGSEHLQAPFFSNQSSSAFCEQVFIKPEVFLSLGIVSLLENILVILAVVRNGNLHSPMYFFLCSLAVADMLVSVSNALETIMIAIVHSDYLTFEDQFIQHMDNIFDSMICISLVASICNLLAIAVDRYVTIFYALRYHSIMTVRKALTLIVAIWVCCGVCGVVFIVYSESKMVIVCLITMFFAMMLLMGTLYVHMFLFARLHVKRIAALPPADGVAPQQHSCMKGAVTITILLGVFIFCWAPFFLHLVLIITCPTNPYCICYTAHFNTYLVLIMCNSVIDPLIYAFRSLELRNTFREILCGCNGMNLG
T4 sequence (Q01726 whole entry): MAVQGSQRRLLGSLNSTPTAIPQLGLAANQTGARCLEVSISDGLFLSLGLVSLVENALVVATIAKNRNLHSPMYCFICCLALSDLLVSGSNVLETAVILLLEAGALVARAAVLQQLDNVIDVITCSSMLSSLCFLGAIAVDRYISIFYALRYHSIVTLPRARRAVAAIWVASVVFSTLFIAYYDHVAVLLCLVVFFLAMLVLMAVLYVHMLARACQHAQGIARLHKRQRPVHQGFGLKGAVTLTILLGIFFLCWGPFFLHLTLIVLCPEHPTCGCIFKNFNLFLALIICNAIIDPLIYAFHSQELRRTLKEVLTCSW
T2 sequence (P33032 whole entry): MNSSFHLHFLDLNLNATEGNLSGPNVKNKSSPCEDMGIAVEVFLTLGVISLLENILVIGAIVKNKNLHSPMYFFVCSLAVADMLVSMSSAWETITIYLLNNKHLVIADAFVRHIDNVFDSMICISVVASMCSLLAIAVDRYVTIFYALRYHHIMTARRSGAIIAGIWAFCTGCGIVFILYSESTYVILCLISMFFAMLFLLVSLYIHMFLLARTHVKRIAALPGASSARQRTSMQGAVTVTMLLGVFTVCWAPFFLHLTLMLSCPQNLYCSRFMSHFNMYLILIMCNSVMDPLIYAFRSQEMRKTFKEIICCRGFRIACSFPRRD
T1 sequence (P32245 whole entry): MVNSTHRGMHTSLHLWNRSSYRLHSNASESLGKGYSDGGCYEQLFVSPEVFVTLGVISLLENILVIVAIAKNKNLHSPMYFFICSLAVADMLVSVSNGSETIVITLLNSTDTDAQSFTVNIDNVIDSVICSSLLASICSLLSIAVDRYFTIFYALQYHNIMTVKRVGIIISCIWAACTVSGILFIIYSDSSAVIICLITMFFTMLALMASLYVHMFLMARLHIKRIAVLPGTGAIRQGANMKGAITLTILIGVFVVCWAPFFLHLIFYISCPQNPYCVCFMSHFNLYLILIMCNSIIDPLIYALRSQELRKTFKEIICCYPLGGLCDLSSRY

B1: Table 2A compound 15 (peptide)
chain: Ac-CEH[d2Nal]R[1Nal]ACPPKD-NH2
modifications: disulfide 1-8
SMILES: CC(=O)N[C@H]1CSSC[C@@H](C(=O)N2CCC[C@H]2C(=O)N2CCC[C@H]2C(=O)N[C@@H](CCCCN)C(=O)N[C@@H](CC(=O)O)C(N)=O)NC(=O)[C@H](C)NC(=O)[C@H](Cc2cccc3ccccc23)NC(=O)[C@H](CCCNC(=N)N)NC(=O)[C@@H](Cc2ccc3ccccc3c2)NC(=O)[C@H](Cc2c[nH]cn2)NC(=O)[C@H](CCC(=O)O)NC1=O
Q: With B1 as the binder, how does the Ki (hMC4-R [1]) read?
A: Its Ki is 1.11 nM.

Q: And the Ki (hMC5-R [2])?
A: The Ki was 348 nM.

Q: And the Ki (hMC3-R [3])?
A: Its Ki is 17.8 nM.

Q: What about the Ki (hMC1-R [4]) of the same binder?
A: Its Ki is 124 nM.

B2: Table 2B compound 1 (peptide)
chain: Ac-CEH[d2Nal]R[2Nal][βAla]CPPKD-NH2
modifications: disulfide 1-8
SMILES: CC(=O)N[C@H]1CSSC[C@@H](C(=O)N2CCC[C@H]2C(=O)N2CCC[C@H]2C(=O)N[C@@H](CCCCN)C(=O)N[C@@H](CC(=O)O)C(N)=O)NC(=O)CCNC(=O)[C@H](Cc2ccc3ccccc3c2)NC(=O)[C@H](CCCNC(=N)N)NC(=O)[C@@H](Cc2ccc3ccccc3c2)NC(=O)[C@H](Cc2c[nH]cn2)NC(=O)[C@H](CCC(=O)O)NC1=O
Q: B2 was tested. Which Ki (hMC5-R [5]) did it give?
A: The Ki was 239 nM.

Q: What about the Ki (hMC1-R [6]) of the same binder?
A: Its Ki is 2060 nM.

Q: And the Ki (hMC3-R [7])?
A: The Ki was 113 nM.

Q: And the Ki (hMC4-R [8])?
A: The Ki was 10.7 nM.

B3: Table 2B compound 2 (peptide)
chain: Ac-CEH[d2Nal]R[2Nal][Aib]CPPKD-NH2
modifications: disulfide 1-8
SMILES: CC(=O)N[C@H]1CSSC[C@@H](C(=O)N2CCC[C@H]2C(=O)N2CCC[C@H]2C(=O)N[C@@H](CCCCN)C(=O)N[C@@H](CC(=O)O)C(N)=O)NC(=O)C(C)(C)NC(=O)[C@H](Cc2ccc3ccccc3c2)NC(=O)[C@H](CCCNC(=N)N)NC(=O)[C@@H](Cc2ccc3ccccc3c2)NC(=O)[C@H](Cc2c[nH]cn2)NC(=O)[C@H](CCC(=O)O)NC1=O
Q: Which results are given for B3?
A: Ki (hMC5-R [5]): 979 nM; Ki (hMC1-R [6]): 1820 nM; Ki (hMC3-R [7]): 306 nM; Ki (hMC4-R [8]): 5.87 nM

B4: Table 2A compound 14 (peptide)
chain: Ac-CEH[d2Nal]R[2Nal]ACPPKD-NH2
modifications: disulfide 1-8
SMILES: CC(=O)N[C@H]1CSSC[C@@H](C(=O)N2CCC[C@H]2C(=O)N2CCC[C@H]2C(=O)N[C@@H](CCCCN)C(=O)N[C@@H](CC(=O)O)C(N)=O)NC(=O)[C@H](C)NC(=O)[C@H](Cc2ccc3ccccc3c2)NC(=O)[C@H](CCCNC(=N)N)NC(=O)[C@@H](Cc2ccc3ccccc3c2)NC(=O)[C@H](Cc2c[nH]cn2)NC(=O)[C@H](CCC(=O)O)NC1=O
Q: B4 was tested. Which Ki (hMC4-R [1]) did it give?
A: Its Ki is 1.2 nM.

Q: And the Ki (hMC5-R [2])?
A: Its Ki is 359 nM.

Q: What about the Ki (hMC3-R [3]) of the same binder?
A: Its Ki is 9.08 nM.

Q: What about the Ki (hMC1-R [4]) of the same binder?
A: The Ki was 87.8 nM.
